± gives the standard deviation of the averaged measurements.
Test: total protein half-life in vivo (active degradation + dilution); higher = more stable protein
[1] = E. coli NCM3722 delta-clpP delta-lon delta-hslV, growth: N-lim chemostat, doubling time 6 h
[2] = E. coli NCM3722 delta-clpP, growth: N-lim chemostat, doubling time 6 h
[3] = E. coli NCM3722 delta-hslV, growth: N-lim chemostat, doubling time 6 h
[4] = E. coli NCM3722 delta-smpB, growth: N-lim chemostat, doubling time 6 h
[5] = wild type E. coli NCM3722, growth: C-lim chemostat, doubling time 3 h
[6] = wild type E. coli NCM3722, growth: C-lim chemostat, doubling time 12 h
[7] = wild type E. coli NCM3722, growth: N-lim chemostat, doubling time 6 h
[8] = wild type E. coli NCM3722, growth: N-lim chemostat, doubling time 12 h
[9] = wild type E. coli NCM3722, growth: P-lim chemostat, doubling time 6 h
[10] = wild type E. coli NCM3722, growth: P-lim chemostat, doubling time 12 h
[11] = E. coli NCM3722 delta-lon, growth: N-lim chemostat, doubling time 6 h
[12] = wild type E. coli NCM3722, growth: C-lim chemostat, doubling time 6 h

| Sequence | total protein half-life in vivo [1] [h] | total protein half-life in vivo [2] [h] | total protein half-life in vivo [3] [h] | total protein half-life in vivo [4] [h] | total protein half-life in vivo [5] [h] | total protein half-life in vivo [6] [h] | total protein half-life in vivo [7] [h] | total protein half-life in vivo [8] [h] | total protein half-life in vivo [9] [h] | total protein half-life in vivo [10] [h] | total protein half-life in vivo [11] [h] | total protein half-life in vivo [12] [h] |
| --- | --- | --- | --- | --- | --- | --- | --- | --- | --- | --- | --- | --- |
| MKFTQRLSLRVRLTLIFLILASVTWLLSSFVAWKQTTDNVDELFDTQLMLFAKRLSTLDLNEINAADRMAQTPNRLKHGHVDDDALTFAIFTHDGRMVLNDGDNGEDIPYSYQREGFADGQLVGEDDPWRFVWMTSPDGKYRIVVGQEWEYREDMALAIVAGQLIPWLVALPIMLIIMMVLLGRELAPLNKLALALRMRDPDSEKPLNATGVPSEVRPLVESLNQLFARTHAMMVRERRFTSDAAHELRSPLTALKVQTEVAQLSDDDPQARKKALLQLHSGIDRATRLVDQLLTLSRLDSLDNLQDVAEIPLEDLLQSSVMDIYHTAQQAKIDVRLTLNAHSIKRTGQPLLLSLLVRNLLDNAVRYSPQGSVVDVTLNADNFIVRDNGPGVTPEALARIGERFYRPPGQTATGSGLGLSIVQRIAKLHGMNVEFGNAEQGGFEAKVSW | 5.9 ± 0.21 | 6.26 ± 0.56 | 6.38 ± 0.11 | 5.66 ± 0.13 | 3.19 | 14.6 ± 1.6 | 5.98 ± 0.52 | 14.08 ± 0.14 | 6.13 ± 0.39 | 12.4 ± 3.3 | – | – |
| MKFVSFNINGLRARPHQLEAIVEKHQPDVIGLQETKVHDDMFPLEEVAKLGYNVFYHGQKGHYGVALLTKETPIAVRRGFPGDDEEAQRRIIMAEIPSLLGNVTVINGYFPQGESRDHPIKFPAKAQFYQNLQNYLETELKRDNPVLIMGDMNISPTDLDIGIGEENRKRWLRTGKCSFLPEEREWMDRLMSWGLVDTFRHANPQTADRFSWFDYRSKGFDDNRGLRIDLLLASQPLAECCVETGIDYEIRSMEKPSDHAPVWATFRR | 5.619 ± 0.036 | 5.58 ± 0.29 | 5.75 ± 0.011 | 5.27 ± 0.3 | 3.14 ± 0.45 | 10.9 ± 0.79 | 5.46 ± 0.4 | 10.8 ± 0.2 | 5.61 ± 0.2 | 11.9 ± 1.3 | 6.04 ± 1.2 | 5.863 ± 0.013 |
| MKGRWVKYLLMGTVVAMLAACSSKPTDRGQQYKDGKFTQPFSLVNQPDAVGAPINAGDFAEQINHIRNSSPRLYGNQSNVYNAVQEWLRAGGDTRNMRQFGIDAWQMEGADNYGNVQFTGYYTPVIQARHTRQGEFQYPIYRMPPKRGRLPSRAEIYAGALSDKYILAYSNSLMDNFIMDVQGSGYIDFGDGSPLNFFSYAGKNGHAYRSIGKVLIDRGEVKKEDMSMQAIRHWGETHSEAEVRELLEQNPSFVFFKPQSFAPVKGASAVPLVGRASVASDRSIIPPGTTLLAEVPLLDNNGKFNGQYELRLMVALDVGGAIKGQHFDIYQGIGPEAGHRAGWYNHYGRVWVLKTAPGAGNVFSG [P0A935] | 5.19 ± 1.9 | 4.22 ± 0.17 | 3.87 ± 0.69 | 3 ± 0.41 | 1.877 ± 0.013 | 4.23 ± 0.38 | 2.99 ± 0.4 | 3.79 ± 0.35 | 3.7 ± 0.37 | 6.57 ± 0.27 | 4.05 ± 0.22 | 2.8 ± 0.13 |
| MKHDHFVVQSPDKPAQQLLLLFHGVGDNPVAMGEIGNWFAPLFPDALVVSVGGAEPSGNPAGRQWFSVQGITEDNRQARVDAIMPTFIETVRYWQKQSGVGANATALIGFSQGAIMVLESIKAEPGLASRVIAFNGRYASLPETASTATTIHLIHGGEDPVIDLAHAVAAQEALISAGGDVTLDIVEDLGHAIDNRSMQFALDHLRYTIPKHYFDEALSGGKPGDDDVIEMM | 4.732 ± 0.016 | – | 2.76 ± 0.035 | 2.67 ± 0.22 | 3.16 ± 0.45 | 5.97 ± 1.4 | 2.93 ± 0.19 | 3.93 ± 0.66 | 4.46 ± 0.27 | 6.94 ± 0.16 | 3.46 ± 0.23 | 6.03 ± 2.2 |
| MKHGIKALLITLSLACAGMSHSALAAASVAKPTAVETKAEAPAAQSKAAVPAKASDEEGTRVSINNASAEELARAMNGVGLKKAQAIVSYREEYGPFKTVEDLKQVPGMGNSLVERNLAVLTL [P0AAR8] | – | – | – | – | – | 3.36 | – | – | – | – | – | – |
| MKHTVEVMIPEAEIKARIAELGRQITERYKDSGSDMVLVGLLRGSFMFMADLCREVQVSHEVDFMTASSYGSGMSTTRDVKILKDLDEDIRGKDVLIVEDIIDSGNTLSKVREILSLREPKSLAICTLLDKPSRREVNVPVEFIGFSIPDEFVVGYGIDYAQRYRHLPYIGKVILLDE [P0A9M2] | 4.48 ± 0.22 | 4.53 ± 0.57 | 4.14 ± 0.16 | 4.08 ± 0.22 | 2.88 ± 0.16 | 9.38 ± 0.47 | 4.126 ± 0.012 | 7.29 ± 0.7 | 5.5 ± 0.17 | 12.9 ± 1.8 | 5.16 ± 0.72 | 4.78 ± 1.6 |
| MKIAFIGEAVSGFGGMETVIRDVITTFRQQHIQSEMFFFCRNDKMDKGWLEGIKYSCSFSNIRLGFLRRAKHIHALSKWLQEYQPDIVICIDVISCLFAAKARKKSGIDMPVFSWPHFSLDHKKHAEYITCADYHLAISSGIKQQMINRGVAESTINVIFNPVETKDSVIPAPEEGETATFIYVGRMKFEGQKRVKDLLDGLSQAKGNWKLHVLGDGSDFEKCQAYGRELNIDDRIVWYGWQQYPWELVQQDIEKVSALLLTSSFEGFPMTLLEALSWGIPCISADCVSGPADIIQPDVNGHLYQPGDIAGFVTLLNKYIAGEIHIEHEKIPASIDEFYQSKYYDRLHKVIISAISRRK | 5.73 ± 0.45 | – | – | 5.9 ± 0.06 | 2.96 ± 0.11 | 10.9 ± 0.65 | 6.03 ± 1.8 | 12.1 ± 1.4 | 6.21 ± 0.58 | 11.8 ± 0.7 | 6.05 ± 0.67 | – |
| MKIAILSRDGTLYSCKRLREAAIQRGHLVEILDPLSCYMNINPAASSIHYKGRKLPHFDAVIPRIGTAITFYGTAALRQFEMLGSYPLNESVAIARARDKLRSMQLLARQGIDLPVTGIAHSPDDTSDLIDMVGGAPLVVKLVEGTQGIGVVLAETRQAAESVIDAFRGLNAHILVQEYIKEAQGCDIRCLVVGDEVVAAIERRAKEGDFRSNLHRGGAASVASITPQEREIAIKAARTMALDVAGVDILRANRGPLVMEVNASPGLEGIEKTTGIDIAGKMIRWIERHATTEYCLKTGG [P0C0U4] | – | 4.13 ± 0.23 | 3.76 ± 0.12 | 3.78 ± 0.36 | 2.85 ± 0.062 | 10.9 ± 0.29 | 3.77 ± 0.19 | 6.029 ± 0.023 | 5.56 ± 0.65 | – | 4.31 ± 0.27 | 5.3 ± 0.24 |
